This note sets out measurements from article PMC10219423, “Characterization of a New Thermostable and Organic Solution-Tolerant Lipase from Pseudomonas fluorescens and Its Application in the Enrichment of Polyunsaturated Fatty Acids” (International Journal of Molecular Sciences, 2023).

In this series the test system is CCCCCCCC(=O)Oc1ccc([N+](=O)[O-])cc1. As to the kind of experiment: purified protein. It counts as biochemical, Pseudomonas fluorescens. The settings on record: Tris-HCl 50 mM, pH 8.0, 40 °C, ethanol and acetonitrile present, 0.01-2.0 mM substrate.

As a reminder, the Km is the substrate concentration at which the rate is half of its maximum.

For LipB (Pseudomonas fluorescens), the Km is given as 0.81 mM.
